How the values were obtained:
LRP = molecular target: T1, LRP (Homo sapiens, UniProt Q07954); assay: 125I-Mesd binding to U87 cells and aortic smooth muscle cells expressing abundant LRP; conditions: 125I-Mesd 5 nM, 4 hours at 4° C.
T1 construct: U87 cells and SMC express abundant LRP; endogenous in cells; host or cells: U87 glioblastoma cells; human aortic smooth muscle cells
Description: Cells (2×10^5) were seeded into 12-well dishes 1 day prior to assay. Ligand-binding buffer (minimal Eagle's medium containing 0.6% BSA with a different concentration of radioligand, 0.6 ml/well) was added to cell monolayers, in the absence or the presence of 500 nM unlabeled RAP or 500 nM unlabeled Mesd, followed with incubation for 0-4 hours at 4° C. Thereafter, overlying buffer containing unbound ligand was removed, and cell monolayers were washed and lysed in low-SDS lysis buffer (62.5 mM Tris-HCl pH 6.8, 0.2% SDS, 10% v/glycerol) and counted.
To determine whether Mesd binds to other members of the LDLR family, ^125I-Mesd binding analysis was performed with four groups of cells expressing different members of the LDLR family (FIG. 2). In the first experiment, HEK293 cells were transiently transfected with cDNAs for the LDLR, LRP5, LRP6 or empty pcDNA3 vector. […]

cytosolic β-catenin = assay: Cytosolic β-catenin level by western blotting in LRP6-transduced HT1080 cells; format: cell-based, human; conditions: 0.5 to 5 nM Mesd, 2 hours at 37° C.
Description: […] After washing in ice-cold PBS, cells were collected and homogenized in a glass Dounce homogenizer in buffer consisting of 100 mM Tris-HCl pH 7.4, 140 mM NaCl, 2 mM DTT, 2 mM PMSF, and 1× Complete™ protease inhibitors (500 μl/well). The homogenate was centrifuged for 10 minutes at 500 g, and the supernatant was further centrifuged at 100,000 g at 4° C. for 90 minutes. The resulting supernatant was designated the cytosolic fraction. The β-catenin levels were then examined by western blotting using β-catenin-specific antibody from Cell Signaling Technology. The immunoreactive proteins were detected using the ECL™ system (Amersham). Films showing immunoreactive bands were scanned with a Kodak Digital Science DC 120 Zoom Digital Camera and band intensities were analyzed with Kodak Digital Science1D Image Analysis Software.
β-catenin is a key molecule in the Wnt/β-catenin signaling pathway. A cytosolic pool of β-catenin interacts with DNA-binding proteins and participates in Wnt signal transduction (Hinck, L., J. Cell Biol. 125: 1327-1340, 1994; Gottardi, C. J., J. Cell Biol. 153: 1049-1060, 2001; Klingelhofer, J., et al., Oncogene 22: 1181-1188, 2003). To determine whether Mesd binding to cell surface LRP6 directly regulates Wnt signaling, we studied the effects of Mesd binding on cytosolic β-catenin levels in HT1080-LRP6 cells. […]

T1 sequence (Q07954 20-4544): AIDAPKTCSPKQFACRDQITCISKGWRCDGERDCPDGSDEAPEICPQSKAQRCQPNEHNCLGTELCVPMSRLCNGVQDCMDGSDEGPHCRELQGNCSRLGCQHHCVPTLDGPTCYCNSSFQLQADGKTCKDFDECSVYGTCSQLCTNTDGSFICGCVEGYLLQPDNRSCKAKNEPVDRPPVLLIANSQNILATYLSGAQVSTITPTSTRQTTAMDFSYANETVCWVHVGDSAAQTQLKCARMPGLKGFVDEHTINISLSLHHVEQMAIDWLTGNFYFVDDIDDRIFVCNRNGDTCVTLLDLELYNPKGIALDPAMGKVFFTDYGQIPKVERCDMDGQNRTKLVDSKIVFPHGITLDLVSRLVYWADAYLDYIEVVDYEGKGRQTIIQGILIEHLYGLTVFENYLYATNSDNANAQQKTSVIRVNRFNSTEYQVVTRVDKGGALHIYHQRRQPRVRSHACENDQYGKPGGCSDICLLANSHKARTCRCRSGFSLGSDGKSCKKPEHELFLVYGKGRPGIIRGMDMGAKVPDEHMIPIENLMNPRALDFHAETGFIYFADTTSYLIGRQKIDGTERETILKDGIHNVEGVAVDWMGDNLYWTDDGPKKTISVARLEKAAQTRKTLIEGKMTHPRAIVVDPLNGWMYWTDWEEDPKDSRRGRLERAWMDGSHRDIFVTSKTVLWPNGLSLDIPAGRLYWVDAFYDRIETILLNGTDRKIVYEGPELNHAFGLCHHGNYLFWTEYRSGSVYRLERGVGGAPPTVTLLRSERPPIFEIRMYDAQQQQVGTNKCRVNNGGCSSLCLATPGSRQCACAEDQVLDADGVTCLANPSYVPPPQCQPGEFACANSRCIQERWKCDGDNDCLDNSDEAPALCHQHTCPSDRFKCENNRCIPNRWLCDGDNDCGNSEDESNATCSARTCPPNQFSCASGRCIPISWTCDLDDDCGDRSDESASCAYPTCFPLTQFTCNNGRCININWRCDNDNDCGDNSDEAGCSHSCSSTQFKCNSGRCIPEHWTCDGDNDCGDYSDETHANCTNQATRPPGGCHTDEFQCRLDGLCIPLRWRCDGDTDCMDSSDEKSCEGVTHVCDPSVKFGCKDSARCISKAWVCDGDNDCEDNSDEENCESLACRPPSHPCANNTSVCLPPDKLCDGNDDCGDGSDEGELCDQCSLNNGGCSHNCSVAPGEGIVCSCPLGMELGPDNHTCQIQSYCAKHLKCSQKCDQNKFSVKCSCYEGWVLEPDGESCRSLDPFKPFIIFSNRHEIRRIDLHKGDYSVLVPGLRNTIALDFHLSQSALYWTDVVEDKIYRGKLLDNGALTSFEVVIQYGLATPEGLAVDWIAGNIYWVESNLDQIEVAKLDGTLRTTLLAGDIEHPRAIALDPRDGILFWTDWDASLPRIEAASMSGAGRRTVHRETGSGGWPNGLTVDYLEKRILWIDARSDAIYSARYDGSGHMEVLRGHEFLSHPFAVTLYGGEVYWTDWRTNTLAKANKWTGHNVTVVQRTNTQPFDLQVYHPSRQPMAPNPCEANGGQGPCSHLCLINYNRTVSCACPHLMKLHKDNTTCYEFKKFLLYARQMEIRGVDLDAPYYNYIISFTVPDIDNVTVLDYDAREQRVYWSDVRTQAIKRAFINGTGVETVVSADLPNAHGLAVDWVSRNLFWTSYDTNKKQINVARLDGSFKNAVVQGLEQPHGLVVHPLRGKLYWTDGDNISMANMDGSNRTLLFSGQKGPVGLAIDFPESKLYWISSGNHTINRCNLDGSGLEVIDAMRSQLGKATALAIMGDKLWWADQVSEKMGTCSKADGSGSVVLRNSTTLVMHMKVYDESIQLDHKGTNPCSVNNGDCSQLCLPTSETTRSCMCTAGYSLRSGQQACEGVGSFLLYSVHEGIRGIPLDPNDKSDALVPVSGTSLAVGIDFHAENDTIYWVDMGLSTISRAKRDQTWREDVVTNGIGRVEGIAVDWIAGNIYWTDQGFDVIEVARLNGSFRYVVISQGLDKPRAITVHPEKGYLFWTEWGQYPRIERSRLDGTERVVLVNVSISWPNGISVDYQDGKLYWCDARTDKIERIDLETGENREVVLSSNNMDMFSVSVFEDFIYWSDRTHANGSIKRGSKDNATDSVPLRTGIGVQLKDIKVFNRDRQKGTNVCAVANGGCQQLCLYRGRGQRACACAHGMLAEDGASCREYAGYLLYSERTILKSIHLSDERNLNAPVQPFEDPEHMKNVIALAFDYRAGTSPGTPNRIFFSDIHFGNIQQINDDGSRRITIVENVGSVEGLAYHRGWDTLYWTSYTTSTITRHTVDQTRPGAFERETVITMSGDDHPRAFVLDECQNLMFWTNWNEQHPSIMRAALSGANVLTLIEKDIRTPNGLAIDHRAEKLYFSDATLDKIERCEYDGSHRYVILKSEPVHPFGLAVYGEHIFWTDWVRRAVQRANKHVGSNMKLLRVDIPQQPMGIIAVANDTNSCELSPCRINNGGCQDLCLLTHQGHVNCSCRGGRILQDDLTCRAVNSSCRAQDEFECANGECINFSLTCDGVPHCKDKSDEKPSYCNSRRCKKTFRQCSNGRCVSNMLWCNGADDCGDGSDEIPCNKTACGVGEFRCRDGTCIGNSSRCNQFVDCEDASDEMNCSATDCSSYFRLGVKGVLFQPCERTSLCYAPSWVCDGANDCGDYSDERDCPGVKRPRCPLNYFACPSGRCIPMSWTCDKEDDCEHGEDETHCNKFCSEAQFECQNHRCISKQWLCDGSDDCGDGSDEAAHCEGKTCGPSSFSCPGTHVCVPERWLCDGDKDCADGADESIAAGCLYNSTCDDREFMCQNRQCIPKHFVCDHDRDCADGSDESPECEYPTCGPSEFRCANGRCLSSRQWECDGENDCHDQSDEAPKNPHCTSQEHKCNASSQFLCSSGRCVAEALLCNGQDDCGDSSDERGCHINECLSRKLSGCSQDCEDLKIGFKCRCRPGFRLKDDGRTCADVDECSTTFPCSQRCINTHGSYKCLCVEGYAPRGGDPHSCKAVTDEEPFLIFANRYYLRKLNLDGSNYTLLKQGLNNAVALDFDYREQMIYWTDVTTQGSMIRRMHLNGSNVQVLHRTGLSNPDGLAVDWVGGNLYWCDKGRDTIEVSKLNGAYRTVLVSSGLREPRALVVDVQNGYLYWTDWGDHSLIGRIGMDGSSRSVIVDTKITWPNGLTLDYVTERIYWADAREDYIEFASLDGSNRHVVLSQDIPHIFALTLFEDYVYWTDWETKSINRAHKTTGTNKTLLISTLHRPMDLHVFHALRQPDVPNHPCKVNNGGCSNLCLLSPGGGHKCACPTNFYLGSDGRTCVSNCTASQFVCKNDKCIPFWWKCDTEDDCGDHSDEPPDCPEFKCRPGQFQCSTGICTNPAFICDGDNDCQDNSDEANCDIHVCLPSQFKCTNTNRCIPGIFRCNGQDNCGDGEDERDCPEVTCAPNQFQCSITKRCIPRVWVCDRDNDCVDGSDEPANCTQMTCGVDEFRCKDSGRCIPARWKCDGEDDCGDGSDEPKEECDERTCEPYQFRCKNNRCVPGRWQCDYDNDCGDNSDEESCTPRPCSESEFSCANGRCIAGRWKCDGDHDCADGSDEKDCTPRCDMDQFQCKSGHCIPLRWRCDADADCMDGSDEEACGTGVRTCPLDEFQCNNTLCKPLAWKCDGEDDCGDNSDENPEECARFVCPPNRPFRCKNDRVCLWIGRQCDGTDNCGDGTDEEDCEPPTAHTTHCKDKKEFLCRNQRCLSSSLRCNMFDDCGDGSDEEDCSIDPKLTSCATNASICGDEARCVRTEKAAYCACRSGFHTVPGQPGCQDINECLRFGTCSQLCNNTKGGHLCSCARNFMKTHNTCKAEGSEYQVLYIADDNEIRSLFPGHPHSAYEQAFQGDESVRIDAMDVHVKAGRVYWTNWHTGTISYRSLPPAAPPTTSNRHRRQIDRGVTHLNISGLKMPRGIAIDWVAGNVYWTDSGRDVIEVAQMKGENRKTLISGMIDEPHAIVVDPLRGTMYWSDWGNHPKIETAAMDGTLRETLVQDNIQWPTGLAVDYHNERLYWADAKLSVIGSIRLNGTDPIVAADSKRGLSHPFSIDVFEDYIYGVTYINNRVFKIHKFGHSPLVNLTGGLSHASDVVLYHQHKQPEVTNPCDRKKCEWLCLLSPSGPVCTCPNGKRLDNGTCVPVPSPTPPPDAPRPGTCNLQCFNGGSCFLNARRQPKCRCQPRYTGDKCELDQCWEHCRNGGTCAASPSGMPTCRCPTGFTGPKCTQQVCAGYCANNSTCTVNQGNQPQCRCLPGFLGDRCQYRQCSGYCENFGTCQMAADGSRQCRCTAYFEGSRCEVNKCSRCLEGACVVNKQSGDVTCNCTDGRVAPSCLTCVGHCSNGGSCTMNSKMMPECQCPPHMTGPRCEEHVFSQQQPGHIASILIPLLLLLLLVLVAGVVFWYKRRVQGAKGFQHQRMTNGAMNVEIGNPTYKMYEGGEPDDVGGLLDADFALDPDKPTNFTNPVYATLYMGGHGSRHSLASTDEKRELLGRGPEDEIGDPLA

B1: Mesd: Recombinant full-length mouse Mesd expressed in E. coli, N-terminal polyhistidine tail, lacking the signal peptide (protein)
chain: ADTPGEATPPPRKKKDIRDYNDADMARLLEQWEKDDDIEEGDLPEHKRPSAPIDFSKLDPGKPESILKMTKKGKTLMMFVTVSGNPTEKETEEITSLWQGSLFNANYDVQRFIVGSDRAIFMLRDGSYAWEIKDFLVSQDRCAEVTLEGQMYPGKGGGSKEKNKTKPEKAKKKEGDRKPRASKEDNRAGSRREDL
modifications: left off: small tags and cut ends
notes: Recombinant full-length mouse Mesd expressed in E. coli, N-terminal polyhistidine tail, lacking the signal peptide
- Specific Mesd binding to U87 or SMC (LRP): minimal
- Change in cytosolic β-catenin levels (cytosolic β-catenin): no significant change
